Patent US20030125311A1, “Compounds capable of binding with the cytoskeleton” (priority 2002, published 2003)

Tested on: binding sites of PREG [3H] in brain cytosol
Test: Effects of hydrolytic enzymes on the binding of PREG [3H] in cytosol
Design: species or system rat
Conditions: for % of Control (binding of PREG [3H]): cytosol incubated with enzyme at 37° C. for 30 min, mean±standard error, n=3
Protocol: Proteinase K (Merck, Darmstadt, Germany) and Pronase® are dissolved at 1 mg/ml in TNM buffer containing 10 mM of Tris, 0.1M of NaCl, 3 mM of MgCl2 (pH 7.4). Deoxyribonuclease I and ribonuclease A are products of Sigma-Aldrich and are respectively adjusted to 100 IU/ml and 5 IU/ml. Phospholipase A2 (Roche Molecular Biochemicals) is diluted to 20 IU/ml in TNM.
1 ml of brain cytosol is incubated with 0.2 ml of an enzyme solution at 37° C. for 30 min. The binding activity is studied of samples (0.2 ml) which had undergone the enzyme treatment or control samples diluted with buffer only.
To study the effects of hydrolytic enzymes on the binding of PREG [^3H], samples of 1 ml of cytosol incubated with 0.2 ml of an enzyme solution at 37° C. for 30 min were used. The results obtained, expressed as % of the control incubation (cytosol diluted in a buffer) are reported in Table 1 (mean±standard error, n=3).

| % of Control (binding of PREG [3H]) [%] | binding sites of PREG [3H] destroyed (enzyme treatment of cytosol) [%] | effect on binding sites of PREG [3H] (in words) (enzyme treatment of cytosol) | Molecule |
| --- | --- | --- | --- |
| 42.4 ± 7.5 | 60 |  | Proteinase K: hydrolytic enzyme (Merck) used to treat cytosol (protein, UniProt P06873 106-384, looked up) Proteinase K: AAQTNAPWGLARISSTSPGTSTYYYDESAGQGSCVYVIDTGIEASHPEFEGRAQMVKTYYYSSRDGNGHGTHCAGTVGSRTYGVAKKTQLFGVKVLDDNGSGQYSTIIAGMDFVASDKNNRNCPKGVVASLSLGGGYSSSVNSAAARLQSSGVMVAVAAGNNNADARNYSPASEPSVCTVGASDRYDRRSSFSNYGSVLDIFGPGTSILSTWIGGSTRSISGTSMATPHVAGLAAYLMTLGKTTAASACRYIADTANKGDLSNIPFGTVNLLAYNNYQA |
| 82.4 ± 9.2 |  | no significant effect | Ribonuclease A: hydrolytic enzyme (Sigma-Aldrich) used to treat cytosol (protein, UniProt P61823 27-150, looked up) Ribonuclease pancreatic: KETAAAKFERQHMDSSTSAASSSNYCNQMMKSRNLTKDRCKPVNTFVHESLADVQAVCSQKNVACKNGQTNCYQSYSTMSITDCRETGSSKYPNCAYKTTQANKHIIVACEGNPYVPVHFDASV |
